The results in this text go back to patent US20240294636A1 (YALE UNIVERSITY, published 2024).

The assay deals with T1, mouse Unc5B (mouse, UniProt Q8K1S3 27-945).
T1 construct: whole, on cells; Endogenous protein; also called Uncoordinated 5B
Nature of the assay: immunoprecipitation from mouse brain endothelial Bend.3 cells with the named antibody, western blot of the precipitate for Unc5B and Claudin5. On the technique in general: In western blotting, separated proteins are transferred to a membrane and probed.

T1 sequence (Q8K1S3 27-945): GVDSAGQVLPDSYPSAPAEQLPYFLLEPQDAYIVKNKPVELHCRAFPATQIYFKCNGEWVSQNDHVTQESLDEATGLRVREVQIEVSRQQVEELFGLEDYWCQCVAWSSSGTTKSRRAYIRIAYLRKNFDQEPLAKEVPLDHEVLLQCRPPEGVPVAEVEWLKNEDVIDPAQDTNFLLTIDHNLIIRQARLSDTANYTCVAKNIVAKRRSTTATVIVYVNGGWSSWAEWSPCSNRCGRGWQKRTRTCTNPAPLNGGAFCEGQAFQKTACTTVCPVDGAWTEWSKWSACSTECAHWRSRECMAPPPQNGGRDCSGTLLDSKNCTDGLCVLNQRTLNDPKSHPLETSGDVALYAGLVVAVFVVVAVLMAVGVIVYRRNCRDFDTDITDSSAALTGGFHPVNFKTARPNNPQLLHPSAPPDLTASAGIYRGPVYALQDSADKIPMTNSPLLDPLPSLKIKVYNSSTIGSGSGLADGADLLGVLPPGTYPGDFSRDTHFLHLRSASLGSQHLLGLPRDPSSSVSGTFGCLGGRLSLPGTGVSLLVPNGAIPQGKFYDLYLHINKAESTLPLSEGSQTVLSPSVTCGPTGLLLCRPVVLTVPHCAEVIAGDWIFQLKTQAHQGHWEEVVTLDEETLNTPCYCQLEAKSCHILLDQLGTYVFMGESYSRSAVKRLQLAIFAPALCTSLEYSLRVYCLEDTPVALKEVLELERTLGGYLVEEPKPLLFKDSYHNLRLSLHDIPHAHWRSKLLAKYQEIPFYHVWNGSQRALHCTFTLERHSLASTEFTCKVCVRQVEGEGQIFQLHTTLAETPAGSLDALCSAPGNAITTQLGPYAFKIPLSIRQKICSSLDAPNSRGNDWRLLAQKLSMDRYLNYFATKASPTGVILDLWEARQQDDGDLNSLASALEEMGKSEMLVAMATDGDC

B1: anti-Unc5B antibody 1103 (antibody, V domains shown)
VH: EVQLVESGGGLVQPGGSLRLSCAASGFNISYYSIHWVRQAPGKGLEWVASIYSSSGYTSYADSVKGRFTISADTSKNTAYLQMNSLRAEDTAVYYCARGYGLDYWGQGTLVTVSS
VL: DIQMTQSPSSLSASVGDRVTITCRASQSVSSAVAWYQQKPGKAPKLLIYSASSLYSGVPSRFSGSRSGTDFTLTISSLQPEDFATYYCQQHYSYPITFGQGTKVEIKR
notes: also called anti-Unc5B-3
Turning to B1, the binding result is “binds”.
